# Laboratory results published in the supplement of paper PMC11316812.
# ± gives the standard deviation of the averaged measurements.
# Experiments:
# MCF7 = assay: percentage of EdU-negative (G0-arrested) nuclei per well, 72 h; higher = more G0 arrest; conditions: reference: sequence is the full UniProt precursor, the tested protein was the secreted form or ectodomain
# hTERT-HMEC = assay: as above; conditions: reference: sequence is the full UniProt precursor, the tested protein was the secreted form or ectodomain
# [1] = protein concentration 0.0345714 µM
# [2] = protein concentration 0.345714 µM
# [3] = protein concentration 0.0155 µM
# [4] = protein concentration 0.01025 µM
# [5] = protein concentration 0.1025 µM
# [6] = protein concentration 0.0225 µM
# [7] = protein concentration 0.01075 µM
# [8] = protein concentration 0.1075 µM
# [9] = protein concentration 0.00875 µM
# [10] = protein concentration 0.0875 µM
# [11] = protein concentration 0.0119275 µM
# [12] = protein concentration 0.119275 µM
# 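Note: secreted proteins added to cultured cells, EdU pulse at the end, nuclei found by Hoechst imaging, EdU status from nuclear versus surrounding ring intensity ratio, PBS as neutral control.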
sequence,measurement,setting,value
METPAWPRVPRPETAVARTLLLGWVFAQVAGASGTTNTVAAYNLTWKSTNFKTILEWEPKPVNQVYTVQISTKSGDWKSKCFYTTDTECDLTDEIVKDVKQTYLARVFSYPAGNVESTGSAGEPLYENSPEFTPYLETNLGQPTIQSFEQVGTKVNVTVEDERTLVRRNNTFLSLRDVFGKDLIYTLYYWKSSSSGKKTAKTNTNEFLIDVDKGENYCFSVQAVIPSRTVNRKSTDSPVECMGQEKGEFREIFYIIGAVVFVVIILVIILAISLHKCRKAGVGQSWKENSPLNVS,percentage of EdU-negative,MCF7; [1],24.03 ± 0.11%
same,percentage of EdU-negative,MCF7; [2],22.3 ± 1.8%
same,percentage of EdU-negative,hTERT-HMEC; [1],4.27 ± 0.75%
same,percentage of EdU-negative,hTERT-HMEC; [2],6.032 ± 0.015%
MQWTSLLLLAGLFSLSQAQYEDDPHWWFHYLRSQQSTYYDPYDPYPYETYEPYPYGVDEGPAYTYGSPSPPDPRDCPQECDCPPNFPTAMYCDNRNLKYLPFVPSRMKYVYFQNNQITSIQEGVFDNATGLLWIALHGNQITSDKVGRKVFSKLRHLERLYLDHNNLTRMPGPLPRSLRELHLDHNQISRVPNNALEGLENLTALYLQHNEIQEVGSSMRGLRSLILLDLSYNHLRKVPDGLPSALEQLYMEHNNVYTVPDSYFRGAPKLLYVRLSHNSLTNNGLASNTFNSSSLLELDLSYNQLQKIPPVNTNLENLYLQGNRINEFSISSFCTVVDVVNFSKLQVLRLDGNEIKRSAMPADAPLCLRLASLIEI,percentage of EdU-negative,MCF7; [3],25.8 ± 0.27%
same,percentage of EdU-negative,MCF7; protein concentration 0.155 µM,30.9 ± 1.2%
same,percentage of EdU-negative,hTERT-HMEC; [3],4.701 ± 0.032%
same,percentage of EdU-negative,hTERT-HMEC; protein concentration 0.155 µM,5.63 ± 0.63%
MSRELAPLLLLLLSIHSALAMRICSFNVRSFGESKQEDKNAMDVIVKVIKRCDIILVMEIKDSNNRICPILMEKLNRNSRRGITYNYVISSRLGRNTYKEQYAFLYKEKLVSVKRSYHYHDYQDGDADVFSREPFVVWFQSPHTAVKDFVIIPLHTTPETSVKEIDELVEVYTDVKHRWKAENFIFMGDFNAGCSYVPKKAWKNIRLRTDPRFVWLIGDQEDTTVKKSTNCAYDRIVLRGQEIVSSVVPKSNSVFDFQKAYKLTEEEALDVSDHFPVEFKLQSSRAFTNSKKSVTLRKKTKSKRS,percentage of EdU-negative,MCF7; [4],28.5 ± 1.3%
same,percentage of EdU-negative,MCF7; [5],27 ± 2%
same,percentage of EdU-negative,hTERT-HMEC; [4],4.824 ± 0.022%
same,percentage of EdU-negative,hTERT-HMEC; [5],5.74 ± 0.076%
MWLLLTLSFLLASTAAQDGDKLLEGDECAPHSQPWQVALYERGRFNCGASLISPHWVLSAAHCQSRFMRVRLGEHNLRKRDGPEQLRTTSRVIPHPRYEARSHRNDIMLLRLVQPARLNPQVRPAVLPTRCPHPGEACVVSGWGLVSHNEPGTAGSPRSQVSLPDTLHCANISIISDTSCDKSYPGRLTNTMVCAGAEGRGAESCEGDSGGPLVCGGILQGIVSWGDVPCDNTTKPGVYTKVCHYLEWIRETMKRN [Q9H2R5],percentage of EdU-negative,MCF7; [6],22.4 ± 2%
same,percentage of EdU-negative,MCF7; protein concentration 0.225 µM,25.76 ± 0.13%
same,percentage of EdU-negative,hTERT-HMEC; [6],5.58 ± 0.041%
same,percentage of EdU-negative,hTERT-HMEC; protein concentration 0.225 µM,5.86 ± 1.2%
MEKMLAGCFLLILGQIVLLPAEARERSRGRSISRGRHARTHPQTALLESSCENKRADLVFIIDSSRSVNTHDYAKVKEFIVDILQFLDIGPDVTRVGLLQYGSTVKNEFSLKTFKRKSEVERAVKRMRHLSTGTMTGLAIQYALNIAFSEAEGARPLRENVPRVIMIVTDGRPQDSVAEVAAKARDTGILIFAIGVGQVDFNTLKSIGSEPHEDHVFLVANFSQIETLTSVFQKKLCTAHMCSTLEHNCAHFCINIPGSYVCRCKQGYILNSDQTTCRIQDLCAMEDHNCEQLCVNVPGSFVCQCYSGYALAEDGKRCVAVDYCASENHGCEHECVNADGSYLCQCHEGFALNPDKKTCTKIDYCASSNHGCQHECVNTDDSYSCHCLKGFTLNPDKKTCRRINYCALNKPGCEHECVNMEESYYCRCHRGYTLDPNGKTCSRVDHCAQQDHGCEQLCLNTEDSFVCQCSEGFLINEDLKTCSRVDYCLLSDHGCEYSCVNMDRSFACQCPEGHVLRSDGKTCAKLDSCALGDHGCEHSCVSSEDSFVCQCFEGYILREDGKTCRRKDVCQAIDHGCEHICVNSDDSYTCECLEGFRLAEDGKRCRRKDVCKSTHHGCEHICVNNGNSYICKCSEGFVLAEDGRRCKKCTEGPIDLVFVIDGSKSLGEENFEVVKQFVTGIIDSLTISPKAARVGLLQYSTQVHTEFTLRNFNSAKDMKKAVAHMKYMGKGSMTGLALKHMFERSFTQGEGARPLSTRVPRAAIVFTDGRAQDDVSEWASKAKANGITMYAVGVGKAIEEELQEIASEPTNKHLFYAEDFSTMDEISEKLKKGICEALEDSDGRQDSPAGELPKTVQQPTESEPVTINIQDLLSCSNFAVQHRYLFEEDNLLRSTQKLSHSTKPSGSPLEEKHDQCKCENLIMFQNLANEEVRKLTQRLEEMTQRMEALENRLRYR,percentage of EdU-negative,MCF7; [7],29.2 ± 1.9%
same,percentage of EdU-negative,MCF7; [8],24.3 ± 0.75%
same,percentage of EdU-negative,hTERT-HMEC; [7],5.94 ± 0.34%
same,percentage of EdU-negative,hTERT-HMEC; [8],6.49 ± 0.6%
MALTLFDTDEYRPPVWKSYLYQLQQEAPHPRRITCTCEVENRPKYYGREFHGMISREAADQLLIVAEGSYLIRESQRQPGTYTLALRFGSQTRNFRLYYDGKHFVGEKRFESIHDLVTDGLITLYIETKAAEYIAKMTINPIYEHVGYTTLNREPAYKKHMPVLKETHDERDSTGQDGVSEKRLTSLVRRATLKENEQIPKYEKIHNFKVHTFRGPHWCEYCANFMWGLIAQGVKCADCGLNVHKQCSKMVPNDCKPDLKHVKKVYSCDLTTLVKAHTTKRPMVVDMCIREIESRGLNSEGLYRVSGFSDLIEDVKMAFDRDGEKADISVNMYEDINIITGALKLYFRDLPIPLITYDAYPKFIESAKIMDPDEQLETLHEALKLLPPAHCETLRYLMAHLKRVTLHEKENLMNAENLGIVFGPTLMRSPELDAMAALNDIRYQRLVVELLIKNEDILF [B8ZZ96],percentage of EdU-negative,MCF7; [9],25.94 ± 0.25%
same,percentage of EdU-negative,MCF7; [10],26.7 ± 0.53%
same,percentage of EdU-negative,hTERT-HMEC; [9],4.91 ± 0.4%
same,percentage of EdU-negative,hTERT-HMEC; [10],6.84 ± 1.4%
MQPLWLCWALWVLPLASPGAALTGEQLLGSLLRQLQLKEVPTLDRADMEELVIPTHVRAQYVALLQRSHGDRSRGKRFSQSFREVAGRFLALEASTHLLVFGMEQRLPPNSELVQAVLRLFQEPVPKAALHRHGRLSPRSARARVTVEWLRVRDDGSNRTSLIDSRLVSVHESGWKAFDVTEAVNFWQQLSRPRQPLLLQVSVQREHLGPLASGAHKLVRFASQGAPAGLGEPQLELHTLDLGDYGAQGDCDPEAPMTEGTRCCRQEMYIDLQGMKWAENWVLEPPGFLAYECVGTCRQPPEALAFKWPFLGPRQCIASETDSLPMIVSIKEGGRTRPQVVSLPNMRVQKCSCASDGALVPRRLQP,percentage of EdU-negative,MCF7; [11],25.8 ± 0.59%
same,percentage of EdU-negative,MCF7; [12],26.51 ± 0.11%
same,percentage of EdU-negative,hTERT-HMEC; [11],5.05 ± 0.39%
same,percentage of EdU-negative,hTERT-HMEC; [12],5.49 ± 0.4%
